This note sets out measurements from patent US20260053920A1 (published 2026).

Experiment [1] addresses T1, IMP2 peptide on HLA-A*02:01 (human).
T1 peptide: NLSALGIFST
The experiment is described as follows: stated without data.

Experiment [2] deals with T1, IMP2 peptide on HLA-A*02:01. The experiment can be described thus: multimer staining.
Experiment [3] has as its target T2, BST2 peptide on HLA-A*02:01 (human).
T2 peptide: LLLGIGILVL
The experiment is described as follows: multimer staining.

B1: MEL58 (TCR)
alpha TRAV23DV6 TRAJ54 CDR3: CAARGAQKLVF
beta TRBV6-5 TRBJ1-6 CDR3: CASSYVGLGSPLHF
On to B1, for which, in experiment [1], the binding result is on record as “recognises”.

B2: MEL56 (TCR)
alpha TRAV12-3 TRAJ35 CDR3: CAMSVGFGNVLHC
beta TRBV27 TRBJ2-7 CDR3: CASSLGLAGNEQYF
With B2, the binding result in experiment [1] is “recognises”.

B3: MEL25 (TCR)
alpha TRAV8-6 TRAJ47 CDR3: CAVSDNGNKLVF
beta TRBV12-4 TRBJ2-7 CDR3: CASSWAGPVEQYF
Take B3: the binding result in experiment [2] and in experiment [3] was “recognises” each time.

B4: MEL8 (TCR, V domains shown)
Valpha: QKEVEQNSGPLSVPEGAIASLNCTYSDRGSQSFFWYRQYSGKSPELIMSIYSNGDKEDGRFTAQLNKASQYVSLLIRDSQPSDSATYLCAVQKLVFGTGTRLLVSP
Vbeta: NAGVTQTPKFQVLKTGQSMTLQCAQDMNHEYMSWYRQDPGMGLRLIHYSVGAGITDQGEVPNGYNVSRSTTEDFPLRLLSAAPSQTSVYFCASSYSFTEATYEQYFGPGTRLTVT
B4: the binding result in experiment [2] and in experiment [3] was “recognises” in each case.

B5: MEL11 (TCR)
alpha TRAV12-2*01 TRAJ30 CDR3: CAVNYEDDKIIF
beta TRBV9 TRBJ2-7 CDR3: CASSVGVQGSWEQYF
In the case of B5, the binding result in experiment [2] and in experiment [3] was “recognises” in each case.

B6: CLL9 (TCR)
alpha TRAV12-2*01 TRAJ9 CDR3: CAVGAGGFKTIF
beta TRBV2*02 TRBJ2-7 CDR3: CASSESPLSGNEQYF
As for B6, the binding result is recorded as “recognises” in experiment [2] and “no recognition” in experiment [3].
